Laboratory results published in patent US20240116985A1 (published 2024).
Starred links: 1 amine or outer side, 2 acyl side, 3 side chain; linkers in the order of their positions; H or OH if unused. Positions of bridges follow the written chain, without caps; N, C: chain ends. Non-standard residues stand in square brackets, D forms with d. Primed or numbered codes have the meaning given here. PyrS2(3) = (S)-3-amino-1-((pent-4-en-1-yloxy)carbonyl)pyrrolidine-3-carboxylic acid, stapling residue, C=CCCCOC(=O)N1CC[C@@](N[*:1])(C(=O)[*:2])C1; PyrS2″ = (S)-3-amino-1-((pent-4-en-1-yloxy)carbonyl)pyrrolidine-3-carboxylic acid (stapling residue), C=CCCCOC(=O)N1CC[C@@](N[*:1])(C(=O)[*:2])C1; (Tfb)GAbu = (S)-2-amino-4-((carboxymethyl)(4,4,4-trifluorobutyl)amino)butanoic acid, O=C([C@H](CCN(CCCC(F)(F)F)CC(=O)[*:3])N[*:1])[*:2]; B5(23) = 2-amino-2-(pent-4-en-1-yl)hept-6-enoic acid (2,2-bis(4-pentenyl)glycine), stitching residue, C=CCCCC(CCCC=C)(N[*:1])C(=O)[*:2]; B5(4) = 2,2-bis(4-pentenyl)glycine = 2-amino-2-(pent-4-en-1-yl)hept-6-enoic acid (stitching residue), C=CCCCC(CCCC=C)(N[*:1])C(=O)[*:2]; TfeGA = (S)-2-amino-3-((carboxymethyl)(2,2,2-trifluoroethyl)amino)propanoic acid, O=C([C@H](CN(CC(=O)[*:3])CC(F)(F)F)N[*:1])[*:2]; PyrS2 = (S)-3-amino-1-((pent-4-en-1-yloxy)carbonyl)pyrrolidine-3-carboxylic acid, C=CCCCOC(=O)N1CC[C@@](N[*:1])(C(=O)[*:2])C1; PyrS1 = (S)-3-amino-1-((but-3-en-1-yloxy)carbonyl)pyrrolidine-3-carboxylic acid, C=CCCOC(=O)N1CC[C@@](N[*:1])(C(=O)[*:2])C1; Az = 1-((allyloxy)carbonyl)-3-aminoazetidine-3-carboxylic acid (stapling residue), C=CCOC(=O)N1CC(N[*:1])(C(=O)[*:2])C1; (Bn)GAbu = (S)-2-amino-4-(benzyl(carboxymethyl)amino)butanoic acid, O=C([C@H](CCN(CC(=O)[*:3])Cc1ccccc1)N[*:1])[*:2]; PyrS = (S)-1-((allyloxy)carbonyl)-3-aminopyrrolidine-3-carboxylic acid, C=CCOC(=O)N1CC[C@@](N[*:1])(C(=O)[*:2])C1; B5(19) = 2-amino-2-(pent-4-en-1-yl)hept-6-enoic acid (bis(4-pentenyl)glycine), C=CCCCC(CCCC=C)(N[*:1])C(=O)[*:2]; GA = (S)-2-amino-3-((carboxymethyl)amino)propanoic acid, O=C([C@H](CNCC(=O)[*:3])N[*:1])[*:2]; Phe(2-Cl) = N[C@@H](Cc1ccccc1Cl)C(=O)O; Bta = N[C@@H](Cc1csc2ccccc12)C(=O)O; αAllylPro = C=CC[C@@]1(C(=O)O)CCCN1; tBuAla = CC(C)(C)C[C@H](N)C(=O)O; 3Thi = N[C@@H](Cc1ccsc1)C(=O)O; Cha = N[C@@H](CC1CCCCC1)C(=O)O; Aib = CC(C)(N)C(=O)O

T1: B-cat-Halo (beta-catenin HaloTag construct expressed in HEK293 cells) (UniProt P35222 1-781)
T1 sequence (looked up): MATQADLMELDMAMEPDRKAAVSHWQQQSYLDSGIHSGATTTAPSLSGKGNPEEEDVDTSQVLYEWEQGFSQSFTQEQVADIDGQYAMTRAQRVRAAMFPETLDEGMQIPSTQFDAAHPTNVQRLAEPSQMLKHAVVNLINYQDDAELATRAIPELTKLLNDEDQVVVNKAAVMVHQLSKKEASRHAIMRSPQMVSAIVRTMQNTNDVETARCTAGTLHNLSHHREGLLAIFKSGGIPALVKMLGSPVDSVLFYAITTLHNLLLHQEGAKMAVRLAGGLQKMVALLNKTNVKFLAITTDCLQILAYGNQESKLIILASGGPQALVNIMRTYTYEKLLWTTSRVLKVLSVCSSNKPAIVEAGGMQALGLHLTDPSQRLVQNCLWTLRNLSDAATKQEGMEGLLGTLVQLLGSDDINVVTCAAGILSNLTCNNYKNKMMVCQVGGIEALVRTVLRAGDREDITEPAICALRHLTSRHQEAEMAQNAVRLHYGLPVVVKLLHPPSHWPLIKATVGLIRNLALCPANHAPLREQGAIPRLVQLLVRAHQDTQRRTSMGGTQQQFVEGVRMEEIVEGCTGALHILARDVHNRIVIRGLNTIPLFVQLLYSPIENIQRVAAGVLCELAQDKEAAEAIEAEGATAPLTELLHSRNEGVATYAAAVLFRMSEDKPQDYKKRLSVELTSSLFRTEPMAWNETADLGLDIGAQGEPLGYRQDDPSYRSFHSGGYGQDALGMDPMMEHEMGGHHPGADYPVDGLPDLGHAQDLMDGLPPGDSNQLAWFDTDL

T2: B-cat-Halo (UniProt P35222 1-781)
T2 sequence (looked up): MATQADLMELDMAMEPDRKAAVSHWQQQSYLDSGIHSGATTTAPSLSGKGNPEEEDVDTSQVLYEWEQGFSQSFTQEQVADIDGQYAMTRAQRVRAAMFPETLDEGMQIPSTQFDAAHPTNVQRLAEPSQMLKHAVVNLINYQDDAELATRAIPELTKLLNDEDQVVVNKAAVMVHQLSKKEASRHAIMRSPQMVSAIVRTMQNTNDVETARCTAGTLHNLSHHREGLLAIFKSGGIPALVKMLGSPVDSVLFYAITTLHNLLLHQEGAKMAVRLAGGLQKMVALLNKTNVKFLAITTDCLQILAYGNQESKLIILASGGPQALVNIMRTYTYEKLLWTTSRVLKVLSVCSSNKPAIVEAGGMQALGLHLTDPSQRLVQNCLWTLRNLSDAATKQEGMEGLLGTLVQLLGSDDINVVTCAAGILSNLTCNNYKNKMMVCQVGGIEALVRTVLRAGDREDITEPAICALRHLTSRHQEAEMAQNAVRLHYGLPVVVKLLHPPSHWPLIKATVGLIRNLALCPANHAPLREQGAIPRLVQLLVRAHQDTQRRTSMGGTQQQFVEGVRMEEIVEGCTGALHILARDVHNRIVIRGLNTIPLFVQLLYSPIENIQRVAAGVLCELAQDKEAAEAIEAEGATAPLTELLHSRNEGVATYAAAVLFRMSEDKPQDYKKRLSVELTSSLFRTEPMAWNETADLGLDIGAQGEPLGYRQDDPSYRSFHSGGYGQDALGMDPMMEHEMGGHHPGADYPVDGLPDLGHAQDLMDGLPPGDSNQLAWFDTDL

T3: B-cat-Halo (UniProt P35222 1-781)
T3 sequence (looked up): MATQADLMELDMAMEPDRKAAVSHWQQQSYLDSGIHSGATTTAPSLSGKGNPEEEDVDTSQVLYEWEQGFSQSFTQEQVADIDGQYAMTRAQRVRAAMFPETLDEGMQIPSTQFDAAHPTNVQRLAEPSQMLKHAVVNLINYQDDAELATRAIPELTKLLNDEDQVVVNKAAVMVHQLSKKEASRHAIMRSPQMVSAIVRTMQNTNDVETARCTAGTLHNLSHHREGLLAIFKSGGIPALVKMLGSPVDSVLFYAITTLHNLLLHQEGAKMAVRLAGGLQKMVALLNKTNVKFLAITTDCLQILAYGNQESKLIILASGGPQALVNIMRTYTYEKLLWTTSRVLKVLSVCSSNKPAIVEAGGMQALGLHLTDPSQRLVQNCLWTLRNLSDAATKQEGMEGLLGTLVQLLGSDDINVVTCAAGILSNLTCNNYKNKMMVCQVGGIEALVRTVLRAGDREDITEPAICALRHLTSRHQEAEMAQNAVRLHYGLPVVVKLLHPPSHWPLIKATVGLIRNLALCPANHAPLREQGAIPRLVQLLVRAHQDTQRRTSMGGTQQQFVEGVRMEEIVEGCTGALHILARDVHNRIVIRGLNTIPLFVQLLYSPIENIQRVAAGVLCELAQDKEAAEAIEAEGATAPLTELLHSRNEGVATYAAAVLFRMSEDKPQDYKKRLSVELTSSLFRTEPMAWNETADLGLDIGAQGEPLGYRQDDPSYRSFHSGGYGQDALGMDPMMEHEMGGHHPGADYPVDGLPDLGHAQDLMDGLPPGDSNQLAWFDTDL


Experiments:
Assay in all cases: cell-based or functional assay
[1] = molecular target: T1, B-cat-Halo (beta-catenin HaloTag …)
[2] = molecular target: T2, B-cat-Halo
[3] = molecular target: T3, B-cat-Halo; remark: listed apart in the source

NanoBRET Abs IC50 [1] | NanoBRET Abs IC50 [2] | Binder | further results
> 20 µM |  | Ac-[αAllylPro]D[tBuAla][B5(19)]DDAAFN[PyrS1][3Thi][Bta]Q-NH2 (staple 1-4, 4-11; also: staple olefins reduced to CH2-CH2) [I-1821] | 
 | > 20 µM | Ac-[αAllylPro]D[tBuAla][B5(23)]D[GA]AAFN[PyrS2][Phe(2-Cl)][Bta]Q-NH2 (staple 1-4, 4-11) [I-1572] | 
 | > 20 µM | Ac-[αAllylPro]D[tBuAla][B5(23)]NTAAFN[PyrS2][3Thi][Bta]Q-NH2 (staple 1-4, 4-11; not fully specified; printed as Ac-PL3-Asp-Npg-B5-Asn-Thr-Ala-Ala-Phe-Asn-PyrS2-3Thi-BztA-Gln-NH2) [I-1565] | 
6.9 µM |  | Ac-[αAllylPro]D[tBuAla][B5(4)]D[TfeGA]AAFL[PyrS2″][Phe(2-Cl)][Bta]Q-NH2 (staple 1-4, 4-11) [I-1833] | 
 |  | Ac-[αAllylPro]D[tBuAla][B5(4)]DTAAFL[PyrS2″][3Thi][Bta]S-NH2 (staple 1-4, 4-11) [I-1171] | NanoBRET Abs IC50 [3]: 28.8 µM
 | > 20 µM | Ac-[αAllylPro]D[tBuAla][B5(23)]NQAAFN[PyrS2][3Thi][Bta]Q-NH2 (staple 1-4, 4-11; not fully specified; printed as Ac-PL3-Asp-Npg-B5-Asn-Gln-Ala-Ala-Phe-Asn-PyrS2-3Thi-BztA-Gln-NH2) [I-1567] | 
18.8 µM |  | Ac-[αAllylPro]D[tBuAla][B5(4)]D[(Bn)GAbu]AAFL[PyrS2″][3Thi][Bta]Q-NH2 (staple 1-4, 4-11) [I-1834] | 
 | > 20 µM | Ac-[αAllylPro]D[tBuAla][B5(23)]NQAAFN[PyrS2][3Thi][Bta]Q-NH2 (staple 1-4, 4-11; also: earlier-eluting HPLC staple isomer) [I-1566] | 
> 20 µM |  | Ac-[αAllylPro]D[tBuAla][B5(4)]DDAAFL[Az][3Thi][Bta]Q-NH2 (staple 1-4, 4-11) [I-1828] | 
 |  | Ac-[αAllylPro]D[tBuAla][B5(4)]DTAAFL[PyrS2″][Phe(2-Cl)][Bta]S-NH2 (staple 1-4, 4-11) [I-1172] | NanoBRET Abs IC50 [3]: 19.4 µM
> 20 µM |  | Ac-[αAllylPro]D[tBuAla][B5(19)]DDAAFN[PyrS][3Thi][Bta]Q-NH2 (staple 1-4, 4-11; also: staple olefins reduced to CH2-CH2) [I-1823] | 
18.5 µM |  | Ac-[αAllylPro]D[tBuAla][B5(4)]D[(Tfb)GAbu]AAFL[PyrS2″][3Thi][Bta]Q-NH2 (staple 1-4, 4-11) [I-1837] | 
 |  | Ac-[αAllylPro]D[tBuAla][B5(4)]DDA[Aib]FL[PyrS2″][3Thi][Bta]Q-NH2 (staple 1-4, 4-11) [I-1178] | NanoBRET Abs IC50 [3]: 28.8 µM
 | > 20 µM | Ac-[αAllylPro]D[tBuAla][B5(23)]D[3TzF]AAFN[PyrS2(3)][3Thi][Bta]Q-NH2 (staple 1-4, 4-11) [I-1578] | 
 |  | Ac-[αAllylPro]D[Cha][B5(4)]DTAAFT[PyrS2″][3Thi][Bta]Q-NH2 (staple 1-4, 4-11) [I-1173] | NanoBRET Abs IC50 [3]: 17.2 µM
 | > 20 µM | Ac-[αAllylPro]DA[B5(23)]NNAAFN[PyrS2][3Thi][Bta]Q-NH2 (staple 1-4, 4-11) [I-1556] | 
